Variants at the floor of the assay were thinned out.
B1: TPR 5TU (parent)
chain: GGAUCUUCUCGAUCUAACAAAAAAGACAAAUCUGCCACAAAGCUUGAGAGCAUCUUCGGAUGCAGAGGCGGCAGCCUUCGGUGGCGCGAUAGCGCCAACGUUCUCAACUAUGACACGCAAAACGCGUGCUCCGUUGAAUGGAGUUUAUCAUG

Variants of: B1
Assay: polymerase ribozyme fitness, log enrichment relative to wild type (log ratio); higher = more active; in vitro selection for triplet polymerase activity
In short: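 Libraries of mutants in each subunit of a heterodimeric triplet polymerase ribozyme were generated by PCR and transcribed. In triplicate, each went through one in vitro selection round: annealing with biotinylated primer, partner subunit and triplets; frozen incubation at −7 °C; gel excision of extended constructs; streptavidin-bead capture; RT-PCR. Fitness, taken from Illumina sequencing of input and output libraries, is the logarithm of a genotype's enrichment over wild-type enrichment, averaged across replicates with inverse-variance weights. The logarithm is base 2, and genotypes needed ≥10 input reads and ≥1 read per output to be kept.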

| Variant | polymerase ribozyme fitness (log ratio) |
| --- | --- |
| A47G U53A C75G U90C | ≤ -4.2 |
| A39C A49U G67A A121U | ≤ -4.2 |
| C95U C131A C132U | -3.79 |
| U13A A37U C96U G126U | -2.85 |
| A19G U44G C63U C76G C103A C125A | ≤ -4.2 |
| A20U A73G C85A C93A G141C | ≤ -4.2 |
| A17U A39C G80A G86U G117U U144C U148G | ≤ -4.2 |
| A22C A60C G62U | -2.13 |
| G11A C96U C116U | -1.68 |
| A3G A19U C27A U82A C93G U111G | ≤ -4.2 |
| C36U C76U G124U | -1.95 |
| A41C U53A C63U C76A | ≤ -4.2 |
| A3U U56A G83A C85U A91G C95U C99A U144G | ≤ -4.2 |
| C18G A26C A107G | ≤ -4.2 |
| C38U U101A C103G A121U U144G | -3.85 |
| G59A C132A | -2.31 |
| A12U A37C U45A U55A C85U G92A | ≤ -4.2 |
| A64U A73G A89C G92A A150U | ≤ -4.2 |
| U53G G136C | -4.09 |
| A41U C54A G92A | ≤ -4.2 |
| A21C C54A C95U C114G G136U | ≤ -4.2 |
| A16C C93A | -3.94 |
| C5A G86U G92U C116G | -0.979 |
| G50A C103G U111G A122U U151A | ≤ -4.2 |

| Variant | polymerase ribozyme fitness (log ratio) |
| --- | --- |
| C18U A19C A30C A47U U56A G67C G70A C85G C87A C96U A142C | ≤ -4.2 |
| G34A U55G | -0.61 |
| G58A A115C U135C G152U | ≤ -4.2 |
| U13G A23U A26C C36A C57A G86U C95U A121C | ≤ -4.2 |
| G59U C96G G133C A137C | ≤ -4.2 |
| A52C A73U C85A C103A | ≤ -4.2 |
| A37G G84U G92A U102G G117U G140A U144A | ≤ -4.2 |
| U7G U56A G59C U78C | -2.83 |
| A21C A23C G80A U82G G86U A137G | ≤ -4.2 |
| U33C C105G | -4.2 |
| A49C G50C C85A C103U A106G G117U A122U C131U U139G | ≤ -4.2 |
| G81U U90C C99A A142G | ≤ -4.2 |
| A20U A41U | -2.17 |
| U7C C35A C87A C95U C116G | ≤ -4.2 |
| U33G C85U U139G | -3.72 |
| G50A U56A C95U | -1.99 |
| C87A C95U A107U | ≤ -4.2 |
| C93U G126A | -0.311 |
| C14G U15C C85U A121C G126A | -0.0533 |
| C27G A52G U53A G100A | ≤ -4.2 |
| A12C A29G C93U U104A U134A | ≤ -4.2 |
| C38U C87U C103U | -0.308 |
| A41U G86U | -1.92 |
| A19G C38A U102C C108U | ≤ -4.2 |

| Variant | polymerase ribozyme fitness (log ratio) |
| --- | --- |
| A19C A20U C54A | -1.03 |
| U6A C118G | -1.66 |
| U53G U55G C75U C76U G83A U135A | ≤ -4.2 |
| C5A G11U A21C C54U C57A C87U | -1.42 |
| C8U A142C | -3.25 |
| A22C C95U A138U | ≤ -4.2 |
| G68A A147U | -4.05 |
| C87A A91C | ≤ -4.2 |
| G84A U109A A115C C123A | -1.8 |
| G34A G70A A89G A122G | -4.01 |
| A40C A52C U53A A73U C76A G83C U102A | ≤ -4.2 |
| A40C G42U C51G G67A C76A G86C A89U U127G | ≤ -4.2 |
| C63G C93A | -1.77 |
| G80A U82G | 0.0436 |
| A22U C105U G136C | -2.55 |
| A37G G84U U104G C118G | ≤ -4.2 |
| G42U A91U | ≤ -4.2 |
| G88U A97G A98U G133U A150U | ≤ -4.2 |
| A17G C75A C87A A91C A115U G140U | ≤ -4.2 |
| A20C C27G C96G A115U | ≤ -4.2 |
| C93G A119G | -3.48 |
| G11U A22G U45G U53G G58C C85U C87A C99G A106U G136A A142U | ≤ -4.2 |
| A17U G62U C85U G141U | -0.389 |
| G59U G94C C99A G128C C129U U130C G140U | ≤ -4.2 |

| Variant | polymerase ribozyme fitness (log ratio) |
| --- | --- |
| C38U A60U A89U | -0.823 |
| A12C U53A U56A | -2.64 |
| C10U G58A U109G | -3.43 |
| C51U G94U C114A G140A | ≤ -4.2 |
| U61A C69A G86U G117C A119G | -3.92 |
| A3U A16U C93U U102C | -4.1 |
| U53A C96U C118A | -1.21 |
| A20C A40C U56G C96G A121U | -1.15 |
| C10U U15C A39U G48C C76A C85G G88A U90G G140U | ≤ -4.2 |
| A3U A29C G68C A73G | ≤ -4.2 |
| U15G C103G U151G | ≤ -4.2 |
| C5A G86U G141A | -1.49 |
| A40G C75U C93U A97U | ≤ -4.2 |
| G25U A49U C93U A119C | -3.95 |
| U13G C18G C27U A40U A64U | ≤ -4.2 |
| A21C A23G C51G U55A U101A | ≤ -4.2 |
| A30U G100U | ≤ -4.2 |
| C76U C85G A121U U148C | -2.83 |
| C14U C96U | -0.908 |
| C38U G58C G65A A119G A147C | -2.82 |
| U53A C75G | ≤ -4.2 |
| C76U C105U C116G | -1.03 |
| G25U C87U A122G | -3.5 |
| U6C A26U C35A A73G C75U C93A C116A A138C | ≤ -4.2 |

| Variant | polymerase ribozyme fitness (log ratio) |
| --- | --- |
| A20G U144A | -0.576 |
| U4A C18G A19U U31A U135C | -4.1 |
| G11A U55G U56A U102A | -3.42 |
| A47C G48U C75U U77A G83C C96A C99A | ≤ -4.2 |
| C10U A29U A47U G84U C103A C116G U145G G152U | ≤ -4.2 |
| U6C A40U C51U A52C C99U G112C | ≤ -4.2 |
| G68A C95U | -3.77 |
| A20G C85A U104C C105G | ≤ -4.2 |
| G84A C87G A110G | ≤ -4.2 |
| A40G C54G G74A G83C C105G | ≤ -4.2 |
| G80C C85U | -3.96 |
| C85G U145A | -1.65 |
| A24G A49C G92U A122C | ≤ -4.2 |
| A19C G67C | ≤ -4.2 |
| A23G C27G A40G U61A C131G G143U | ≤ -4.2 |
| U13G A49C G152U | ≤ -4.2 |
| A52U U53A C96U A119C | -2.05 |
| A39C C63A A119C | -4.05 |
| G11U C18G A21C U31C C57U A91G A113C G143U | ≤ -4.2 |
| C35U U77C G88A G124U | ≤ -4.2 |
| A49C C103A U139A | ≤ -4.2 |
| C63U G141C | -0.69 |
| C85U G126A | 0.641 |
| C54G G84C U109C U134G U148A | ≤ -4.2 |

| Variant | polymerase ribozyme fitness (log ratio) |
| --- | --- |
| C85A G143A | -1.99 |
| C54G C103U | -2.16 |
| A12C C96G C99U | -2.39 |
| A19U A21U A39G C43A U45A A91G | ≤ -4.2 |
| G81A C95A C103A | -2.93 |
| A26C A41U | -3.05 |
| C54U U55A C93U | -0.48 |
| C51U A150G | -1.14 |
| U53C U55C C105U | -1.88 |
| G42C U55A | -4.09 |
| G11C U31A A40U | -0.204 |
| C57U U151G | -3.63 |
| C63A U102C | -0.926 |
| C38U C54A C99U C132U | -2.38 |
| G46U C63G G94U U101G A137G A147C | ≤ -4.2 |
| A21C C85U U102G C118U U144G U151A | ≤ -4.2 |
| G58C G65C A66C U77G U102A C132U | ≤ -4.2 |
| A41C C57U | -0.124 |
| A3U C76A | -1.8 |
| U56A G88C A122G C123G | ≤ -4.2 |
| A20U A73G U104G A115G | ≤ -4.2 |
| U45G U55G C76U G84A | -3.76 |
| C10G A19U C32A C93U U127A | ≤ -4.2 |
| A30G A64C A66U C99U U102A G117A U145G | ≤ -4.2 |

| Variant | polymerase ribozyme fitness (log ratio) |
| --- | --- |
| C18U G58C A73G C132A | -3.75 |
| A12U C57U | -0.208 |
| G84U C116U | -2.7 |
| G46A | -0.076 |
| A39C G80C C85U A89G C116G | ≤ -4.2 |
| A12G U33A A39C G65A G70C C96G A119U C129A U135G | ≤ -4.2 |
| C14G G86U | -3.77 |
| G92U C125A | -1.82 |
| U78G G86C U102G C108U A119U G140U | ≤ -4.2 |
| A20G A24G A39G A40C C76A G136U G141A | ≤ -4.2 |
| C14U G65C C87G C96U C132U U139G | ≤ -4.2 |
| C96A U127C | -1.71 |
| C5U C35U U77G C85G A89U A110C U144G | ≤ -4.2 |
| G80C G128C | -3.87 |
| A28U C51A A52C C76U U78G A89G | ≤ -4.2 |
| C8U A20C G50C G71A C96A A98G C114U U148C | ≤ -4.2 |
| U77A G84A C85U C129A | ≤ -4.2 |
| A21U A26U A40U | -3.62 |
| A22U A49U U55A G84U G100U C108U | ≤ -4.2 |
| C118G A122G | -0.988 |
| G25C U44A A66G G71A A91U C131U C132G | ≤ -4.2 |
| C35U C85G | -2.73 |
| A17U A49G G86U | -1.95 |

Source: the RNAGym collection of RNA variant scans (doi:10.1073/pnas.2313332121)
